From US6416738B1, “Pretargeting methods and compounds” (NeoRx Corporation, priority 1973, dated 2002)

Molecular target: T1, NR-LU-10 antigen (Homo sapiens, UniProt P16422)
T1 construct: Positive NR-LU-10 tissue reactivity indicates NR-LU-10 antigen expression by such tissues; from tissue; host or cells: carcinoma and normal tissue specimens
T1 sequence (P16422 24-314): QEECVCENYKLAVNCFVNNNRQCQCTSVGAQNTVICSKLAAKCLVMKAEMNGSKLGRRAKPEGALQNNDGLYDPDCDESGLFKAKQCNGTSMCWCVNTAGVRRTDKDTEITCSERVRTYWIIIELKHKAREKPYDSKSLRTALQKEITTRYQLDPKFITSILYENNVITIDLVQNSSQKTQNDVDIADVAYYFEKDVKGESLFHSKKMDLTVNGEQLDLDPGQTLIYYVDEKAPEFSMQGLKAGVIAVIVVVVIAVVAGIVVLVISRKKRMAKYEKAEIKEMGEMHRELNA
Assay: NR-LU-10 tumor tissue reactivity (Table A)
Format: binding
Excerpt: Radioimmunoassays, immunoprecipitation and Fluorescence-Activated Cell Sorter (FACS) analysis were used to obtain reactivity profiles of NR-LU-10. The NR-LU-10 target antigen was present on either fixed cultured cells or in detergent extracts of various types of cancer cells. For example, the NR-LU-10 antigen is found in small cell lung, non-small cell lung, colon, breast, renal, ovarian, pancreatic, and other carcinoma tissues. Tumor reactivity of the NR-LU-10 antibody is set forth in Table A, while NR-LU-10 reactivity with normal tissues is set forth in Table B. The values in Table B are obtained as described below. Positive NR-LU-10 tissue reactivity indicates NR-LU-10 antigen expression by such tissues.

B1: NR-LU-10: 150 kilodalton IgG2b monoclonal antibody recognizing an approximately 40 kilodalton glycoprotein antigen expressed on most carcinomas (antibody, V domains shown)
VH: EVQLQQSGAELVKPGASVRLSCTASGFNIKDTYMHWVIERPEQGLEWIGRIDPANGNTKCDPKFQGKATITADTSSNTAYLQLSSLTSEDTAVYYCSREVLTGTWSLDYWGQGTSVTVSS
VL: DIQMIQSPSSMFASLGDRVSLSCRASQGIRGNLDWYQQKPGGTIKLLIYSTSNLNSGVPSRFSGSGSGSDYSLTISSLDSEDFADYYCLQRNAYPYTFGGGTKLEIK
# Pos/Exam (Breast Adenocarcinoma): 23/23
Intensity Avg. (rated 0-3) (Breast Adenocarcinoma): 2.9
Percent Avg. (cells stained) (Breast Adenocarcinoma): 97%
Uniformity Avg. (rated 0-3) (Breast Adenocarcinoma): 2.8
# Pos/Exam (Colon Carcinoma): 12/12
Intensity Avg. (rated 0-3) (Colon Carcinoma): 2.9
Percent Avg. (cells stained) (Colon Carcinoma): 98%
Uniformity Avg. (rated 0-3) (Colon Carcinoma): 2.9
# Pos/Exam (Liposarcoma): 0/2
Intensity Avg. (rated 0-3) (Liposarcoma): 0
Percent Avg. (cells stained) (Liposarcoma): 0%
Uniformity Avg. (rated 0-3) (Liposarcoma): 0
# Pos/Exam (Lung Adenocarcinoma): 8/8
Intensity Avg. (rated 0-3) (Lung Adenocarcinoma): 3
Percent Avg. (cells stained) (Lung Adenocarcinoma): 100%
Uniformity Avg. (rated 0-3) (Lung Adenocarcinoma): 2.2
# Pos/Exam (Lung Small Cell Carcinoma): 2/2
Intensity Avg. (rated 0-3) (Lung Small Cell Carcinoma): 3
Percent Avg. (cells stained) (Lung Small Cell Carcinoma): 100%
Uniformity Avg. (rated 0-3) (Lung Small Cell Carcinoma): 2
# Pos/Exam (Lung Squamous Cell Carcinoma): 8/8
Intensity Avg. (rated 0-3) (Lung Squamous Cell Carcinoma): 2.3
Percent Avg. (cells stained) (Lung Squamous Cell Carcinoma): 73%
Uniformity Avg. (rated 0-3) (Lung Squamous Cell Carcinoma): 1.8
# Pos/Exam (Lymphoma): 0/2
Intensity Avg. (rated 0-3) (Lymphoma): 0
Percent Avg. (cells stained) (Lymphoma): 0%
Uniformity Avg. (rated 0-3) (Lymphoma): 0
# Pos/Exam (Malignant Melanoma): 0/11
Intensity Avg. (rated 0-3) (Malignant Melanoma): 0
Percent Avg. (cells stained) (Malignant Melanoma): 0%
Uniformity Avg. (rated 0-3) (Malignant Melanoma): 0
# Pos/Exam (Malignant Melanoma Ocular): 0/2
Intensity Avg. (rated 0-3) (Malignant Melanoma Ocular): 0
Percent Avg. (cells stained) (Malignant Melanoma Ocular): 0%
Uniformity Avg. (rated 0-3) (Malignant Melanoma Ocular): 0
# Pos/Exam (Osteosarcoma): 1/1
Intensity Avg. (rated 0-3) (Osteosarcoma): 2
Percent Avg. (cells stained) (Osteosarcoma): 20%
Uniformity Avg. (rated 0-3) (Osteosarcoma): 1
# Pos/Exam (Ovarian Carcinoma): 35/35
Intensity Avg. (rated 0-3) (Ovarian Carcinoma): 2.9
Percent Avg. (cells stained) (Ovarian Carcinoma): 100%
Uniformity Avg. (rated 0-3) (Ovarian Carcinoma): 2.2
# Pos/Exam (Pancreas Carcinoma): 6/6
Intensity Avg. (rated 0-3) (Pancreas Carcinoma): 3
Percent Avg. (cells stained) (Pancreas Carcinoma): 100%
Uniformity Avg. (rated 0-3) (Pancreas Carcinoma): 2.3
# Pos/Exam (Prostate Carcinoma): 9/9
Intensity Avg. (rated 0-3) (Prostate Carcinoma): 2.8
Percent Avg. (cells stained) (Prostate Carcinoma): 95%
Uniformity Avg. (rated 0-3) (Prostate Carcinoma): 2
# Pos/Exam (Renal Carcinoma): 8/9
Intensity Avg. (rated 0-3) (Renal Carcinoma): 2.2
Percent Avg. (cells stained) (Renal Carcinoma): 83%
Uniformity Avg. (rated 0-3) (Renal Carcinoma): 1
# Pos/Exam (Synovial Sarcoma): 0/1
Intensity Avg. (rated 0-3) (Synovial Sarcoma): 0
Percent Avg. (cells stained) (Synovial Sarcoma): 0%
Uniformity Avg. (rated 0-3) (Synovial Sarcoma): 0
# Pos/Exam (Undifferentiated Carcinoma): 1/1
Intensity Avg. (rated 0-3) (Undifferentiated Carcinoma): 2
Percent Avg. (cells stained) (Undifferentiated Carcinoma): 90%
Uniformity Avg. (rated 0-3) (Undifferentiated Carcinoma): 2
# Pos/Exam (Uterine Leiomyosarcoma): 0/1
Intensity Avg. (rated 0-3) (Uterine Leiomyosarcoma): 0
Percent Avg. (cells stained) (Uterine Leiomyosarcoma): 0%
Uniformity Avg. (rated 0-3) (Uterine Leiomyosarcoma): 0
